Measurements taken from US20220169732A1 (BIOND BIOLOGICS, published 2022).
Where no end group is shown, it is not given here.

Target: T1, BSA conjugated CD28 stalk region dimeric peptide (also: dimer through the cysteine, BSA conjugated via C-terminal Lys by hydrazide chemistry)
T1 peptide: GKHLCPSPLFPGPSKPK
Experiment: ELISA

B1: antibody M9 (antibody, V domains shown)
VH: DVKLVESGGGLVKLGGSLKLSCVASGFTFSSYYMSWVRQTPEKRLEWVATISDGGDNTYYAGTVTGRFTISRDFAKNTLYLQMNSLTSEDTAVYYCARIHWPYYFDSWGQGTTLTVSS
VL: QFVLSQSPAILSASPGEMLTMTCRASSSVSYMNWYQQKPGSSPKPWIYATSDLASGVPARFSGSGSGTSYSLTISRVEAEDAATYYCQQWSSHPPTFGGGTKLEIR
notes: Full-size mouse antibody raised in CD1 mice against the dimeric stalk peptide; detected with anti mouse IgG; also called clone M9; anti-cleavage antibody M9
  IC50: 9 ng/mL
